Experimental findings from patent US20060257406A1 (published 2006) are described below.

Positions count from the first letter of the chain named.

One may read the IC50 as the concentration needed to halve the response being measured. Low values mean greater potency, high ones weaker potency.

First the molecules themselves.
B1: TAR1-5-19 3U homodimer (other)
chain: DIQMTQSPSSLSASVGDRVTITCRASQSIDSYLHWYQQKPGKAPKLLIYSASELQSGVPSRFSGSGSGTDFTLTISSLQPEDFATYYCQQVVWRPFTFGQGTKVEIKRGGGGSGGGGSGGGGSDIQMTQSPSSLSASVGDRVTITCRASQSIDSYLHWYQQKPGKAPKLLIYSASELQSGVPSRFSGSGSGTDFTLTISSLQPEDFATYYCQQVVWRPFTFGQGTKVEIKR
notes: also called TAR1-5-19 homodimer with (Gly4Ser)3 linker
B2: TAR1-5-19 7U homodimer (other)
chain: DIQMTQSPSSLSASVGDRVTITCRASQSIDSYLHWYQQKPGKAPKLLIYSASELQSGVPSRFSGSGSGTDFTLTISSLQPEDFATYYCQQVVWRPFTFGQGTKVEIKRGGGGSGGGGSGGGGSGGGGSGGGGSGGGGSGGGGSDIQMTQSPSSLSASVGDRVTITCRASQSIDSYLHWYQQKPGKAPKLLIYSASELQSGVPSRFSGSGSGTDFTLTISSLQPEDFATYYCQQVVWRPFTFGQGTKVEIKR
notes: also called TAR1-5-19 homodimer with (Gly4Ser)7 linker
B3: TAR1-5-19 cys hinge (other)
chain: DIQMTQSPSSLSASVGDRVTITCRASQSIDSYLHWYQQKPGKAPKLLIYSASELQSGVPSRFSGSGSGTDFTLTISSLQPEDFATYYCQQVVWRPFTFGQGTKVEIKREPKSGDKTHFCPPCP
notes: also called cysteine hinge linker format; hinge dimer
B4: TAR1-5-19 5U homodimer (other)
chain: DIQMTQSPSSLSASVGDRVTITCRASQSIDSYLHWYQQKPGKAPKLLIYSASELQSGVPSRFSGSGSGTDFTLTISSLQPEDFATYYCQQVVWRPFTFGQGTKVEIKRGGGGSGGGGSGGGGSGGGGSGGGGSDIQMTQSPSSLSASVGDRVTITCRASQSIDSYLHWYQQKPGKAPKLLIYSASELQSGVPSRFSGSGSGTDFTLTISSLQPEDFATYYCQQVVWRPFTFGQGTKVEIKR
notes: also called TAR1-5-19 homodimer with (Gly4Ser)5 linker
B5: TAR1-5d1 (other)
chain: DIQMTQSPSSLSASVGDRVTITCRASQSIFMNLLWYQQKPGKAPKLLIYNASVLQSGVPSRFSGSGSGTDFTLTISSLQPEDFATYYCQQVVWRPFTFGQGTKVEIKRGGGGSGGGGSGGGGSDIQMTQSPSSLSASVGDRVTITCRASQSIYDALEWYQQKPGKAPKLLIYTASRLQSGVPSRFSGSGSGTDFTLTISSLQPEDFATYYCQQVMQRPVTFGQGTKVEIK
notes: dAb-linker-dAb dimer; FPLC purified small dimeric species; also called dimer 1
B6: TAR1-5d5 (other)
chain: DIQMTQSPSSLSASVGDRVTITCRASQSIFMNLLWYQQKPGKAPKLLIYNASVLQSGVPSRFSGSGSGTDFTLTISSLQPEDFATYYCQQVVWRPFTFGQGTKVEIKRGGGGSGGGGSGGGGSGGGGSGGGGSDIQMTQSPSSLSASVGDRVTITCRASQSIYDALEWYQQKPGKAPKLLIYTASRLQSGVPSRFSGSGSGTDFTLTISSLQPEDFATYYCQQVMQRPVTFGQGTKVEIK
notes: FPLC purified large dimeric species; also called dimer 5
B7: TAR1-5d4 (other)
chain: DIQMTQSPSSLSASVGDRVTITCRASQSIFMNLLWYQQKPGKAPKLLIYNASVLQSGVPSRFSGSGSGTDFTLTISSLQPEDFATYYCQQVVWRPFTFGQGTKVEIKRGGGGSGGGGSGGGGSGGGGSGGGGSDIQMTQSPSSLSASVGDRVTITCRASQSVKEFLWWYQQKPGKAPKLLIYMASNLQSGVPSRFSGSGSGTDFTLTISSLQPEDFATYYCQQKFKLPRTFGQGTKVEIK
notes: FPLC purified small dimeric species; also called TAR1-5 dimer 4
B8: TAR1-5d6 (other)
chain: DIQMTQSPSSLSASVGDRVTITCRASQSIFMNLLWYQQKPGKAPKLLIYNASVLQSGVPSRFSGSGSGTDFTLTISSLQPEDFATYYCQQVVWRPFTFGQGTKVEIKRGGGGSGGGGSGGGGSGGGGSGGGGSGGGGSGGGGSDIQMTQSPSSLSASVGDRVTITCRASQSIYDALEWYQQKPGKAPKLLIYTASRLQSGVPSRFSGSGSGTDFTLTISSLQPEDFATYYCQQVMQRPVTFGQGTKVEIK
notes: FPLC purified large dimeric species; also called dimer 6
B9: dAb3CH/TAR1-5CK (Fab, V domains shown)
V domain 1: DIQMTQSPSSLSASVGDRVTITCRASQSVKEFLWWYQQKPGKAPKLLIYMASNLQSGVPSRFSGSGSGTDFTLTISSLQPEDFATYYCQQKFKLPRTFGQGTKVEIK
V domain 2: DIQMTQSPSSLSASVGDRVTITCRASQSIFMNLLWYQQKPGKAPKLLIYNASVLQSGVPSRFSGSGSGTDFTLTISSLQPEDFATYYCQQVVWRPFTFGQGTKVEIK
notes: also called TAR1-5CK d3CH
B10: dAb1 CH/TAR1-5-19CK (Fab, V domains shown)
V domain 1: B9 V domain 2 with F30Y, M31D, N32A, L34E, N50T, V53R, V92M, W93Q, F96V
V domain 2: B9 V domain 2 with F30D, M31S, N32Y, L34H, N50S, V53E
notes: also called TAR1-5-19CK d1CH
B11: TAR1-5-19CH/dAb1 CK (Fab, V domains shown)
V domain 1: B9 V domain 2 with F30D, M31S, N32Y, L34H, N50S, V53E
V domain 2: B9 V domain 2 with F30Y, M31D, N32A, L34E, N50T, V53R, V92M, W93Q, F96V
notes: also called TAR1-5-19CH d1CK
B12: TAR1-5CH/dAb1 CK (Fab, V domains shown)
V domain 1: B9 V domain 2
V domain 2: B9 V domain 2 with F30Y, M31D, N32A, L34E, N50T, V53R, V92M, W93Q, F96V
B13: TAR1-5-19CH/dAb3CK (Fab, V domains shown)
V domain 1: B9 V domain 2 with F30D, M31S, N32Y, L34H, N50S, V53E
V domain 2: B9 V domain 1
notes: also called TAR1-5-19CH d3CK
B14: TAR1-5-19CYS dimer (other)
chain: DIQMTQSPSSLSASVGDRVTITCRASQSIDSYLHWYQQKPGKAPKLLIYSASELQSGVPSRFSGSGSGTDFTLTISSLQPEDFATYYCQQVVWRPFTFGQGTKVEIKRC
modifications: disulphide between the C-terminal Cys of the two chains
notes: separated from monomer by cation exchange; also called the dimer
B15: TAR1-5-19, MSA16 cys bonded heterodimer (bispecific antibody, V domains shown)
V domain 1: DIQMTQSPSSLSASVGDRVTITCRASQSIDSYLHWYQQKPGKAPKLLIYSASELQSGVPSRFSGSGSGTDFTLTISSLQPEDFATYYCQQVVWRPFTFGQGTKVEIKR
V domain 2: DIQMTQSPSSLSASVGDRVTITCRASQSIIKHLKWYQQKPGKAPKLLIYGASRLQSGVPSRFSGSGSGTDFTLTISSLQPEDFATYYCQQGARWPQTFGQGTKVEIKR
modifications: C-terminal Cys disulphide bonded to the C-terminal Cys of the MSA16 chain ; chain 1 pos 109 Cys and chain 2 pos 109 Cys are joined by an intermolecular disulphide bond (chemical coupling via dithiodipyridine); no tags
notes: two Vκ dAbs joined by a disulphide bond; separated from monomers by cation exchange; also called disulphide bonded heterodimer of TAR1-5-19 dAb and MSA16 dAb; heterodimeric species
B16: anti-serum albumin Vκ dAb clones 30, 35 (other)
VL: B9 V domain 2 with F30R, M31R, N32Y, L34K, N50Q, V91G, V92L, W93Y, R94P, F96I
B17: anti-serum albumin Vκ dAb clones 46, 47, 52, 56 (other)
VL: B9 V domain 2 with M31K, N32S, L34K, V53Y, W93Y, R94W, F96V
notes: same printed CDRs as clone 55
B18: TAR1-5-19 d1 (other)
chain: B5 chain with F30D, M31S, N32Y, L34H, N50S, V53E
B19: TAR1-5-19d5 (other)
scFv: B6 chain with F30D, M31S, N32Y, L34H, N50S, V53E
B20: TAR1-5-19 d6 (other)
chain: B8 chain with F30D, M31S, N32Y, L34H, N50S, V53E

T1 sequence (P01375 77-233 limits assumed): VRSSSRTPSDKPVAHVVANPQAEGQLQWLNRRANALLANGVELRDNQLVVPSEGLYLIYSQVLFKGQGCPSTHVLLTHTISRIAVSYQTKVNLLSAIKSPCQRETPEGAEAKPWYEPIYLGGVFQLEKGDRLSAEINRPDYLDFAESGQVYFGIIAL

One assay concerns the target T1, human TNFα (human, UniProt P01375 77-233).
T1 construct: also called TAR1; TNF alpha
Nature of the assay: TNF receptor assay (ELISA): inhibition of TNF binding to plate-bound TNF receptor 1-Fc. On the technique in general: In an ELISA, binding on a coated surface is turned into a signal by an enzyme label.
B1 came in with an IC50 of around 20 nM.
Regarding B2, the IC50 is around 10 nM.
The molecule B3 yielded an IC50 of around 2 nM.
In turn, B4 came in with a concentration for half-maximal inhibition (IC50) of around 2 nM.

A further assay concerns the target T1, human TNFα. The assay is described as above. This is another data set of the same source.
As for B5, the IC50 is around 30 nM.
For the molecule B6, the IC50 is around 200 nM.
In the case of B7, the IC50 was around 3 nM.
In the case of B8, the IC50 is around 100 nM.

A further assay concerns the target T1, human TNFα. The description is as above. The source holds these as a separate data set.
B9 had an IC50 of around 100 nM.
In the case of B10, the IC50 is around 6 nM.
In turn, B11 had an IC50 of around 6 nM.
Take B12: the IC50 is around 90 nM.
B13 registered an IC50 of around 3 nM.

The target in a further assay is T1, human TNFα. The assay is described as above. This is another data set of the same source.
The molecule B14 registered an IC50 of 0.3 to 0.8 nM.
For the molecule B15, the IC50 is around 18 nM.

The target in the next assay is T2, mouse serum albumin (mouse, UniProt P07724 25-608).
T2 construct: biotinylated MSA (about 2 biotins per molecule) in the capture ELISA; also called MSA
T2 sequence (P07724 25-608 limits assumed): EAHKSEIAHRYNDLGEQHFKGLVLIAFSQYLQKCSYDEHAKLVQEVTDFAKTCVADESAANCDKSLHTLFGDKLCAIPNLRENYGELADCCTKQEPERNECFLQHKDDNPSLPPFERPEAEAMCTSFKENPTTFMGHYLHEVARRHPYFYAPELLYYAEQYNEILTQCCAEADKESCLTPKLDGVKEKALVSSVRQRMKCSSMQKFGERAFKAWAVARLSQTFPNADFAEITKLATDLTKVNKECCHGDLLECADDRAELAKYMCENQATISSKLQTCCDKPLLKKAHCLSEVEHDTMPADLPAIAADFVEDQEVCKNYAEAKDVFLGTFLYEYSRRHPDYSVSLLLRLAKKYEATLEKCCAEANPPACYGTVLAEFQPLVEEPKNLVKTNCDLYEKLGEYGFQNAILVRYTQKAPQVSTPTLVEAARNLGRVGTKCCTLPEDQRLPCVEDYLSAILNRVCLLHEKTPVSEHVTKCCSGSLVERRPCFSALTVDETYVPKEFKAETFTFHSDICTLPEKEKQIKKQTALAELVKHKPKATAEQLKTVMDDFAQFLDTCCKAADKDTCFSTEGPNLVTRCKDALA
Kind of assay: capture ELISA: dAb on protein L, biotinylated MSA, streptavidin-HRP. As for the experimental part: Two rounds of selection were performed on serum albumin using each of the libraries separately. For each selection, antigen was coated on immunotube (nunc) in 4 ml of PBS at a concentration of 100 μg/ml. In the first round of selection, each of the three libraries was panned separately against HSA (Sigma) and MSA (Sigma). In the second round of selection, phage from each of the six first round selections was panned against (i) the same antigen again (eg 1st round MSA, 2nd round MSA) and (ii) against the reciprocal antigen (eg 1st round MSA, 2nd round HSA) resulting in a total of twelve 2nd round selections. In each case, after the second round of selection 48 clones were tested for binding to HSA and MSA. Soluble dAb fragments were produced as described for scFv fragments by Harrison et al, Methods Enzymol. 1996; 267:83-109 and standard ELISA protocol was followed (Hoogenboom et al. (1991) Nucleic Acids Res., 19: 4133) except that 2% tween PBS was used as a blocking buffer and bound dabs were detected with either protein LHRP (Sigma) (for the Vκs) and protein A—HRP (Amersham Pharmacia Biotech) (for the VHs).
Next, the serum albumin binding dAbs were tested for their ability to capture biotinylated antigen from solution. ELISA protocol (as above) was followed except that ELISA plate was coated with 1 μg/ml protein L (for the Vκ clones) and 1 μg/ml protein A (for the VH clones). Soluble dAb was captured from solution as in the protocol and detection was with biotinylated MSA or HSA and streptavidin HRP. The biotinylated MSA and HSA had been prepared according to the manufacturer's instructions, with the aim of achieving an average of 2 biotins per serum albumin molecule. […] Next, the dAbs were tested for their ability to bind MSA coated on a CM5 biacore chip.
Turning to B16, the binding result is “binds”.
On to B17, for which the binding result was “binds”.

A further assay addresses T1, human TNFα. Kind of assay: cell-based or functional assay.
For B1, the “CA (cell assay) ND50” value is around 30 nM.
Still for that read-out and setting: to B2 belongs around 15 nM; to B4, around 3 nM.

The next assay concerns the target T1, human TNFα. Nature of the assay: TNF receptor assay (ELISA): inhibition of TNF binding to plate-bound TNF receptor 1-Fc. The source holds these as a separate data set.
As for B18, the IC50 is around 15 nM.
Still for that read-out and setting: the figure for B19 is around 8 nM; for B20 it is around 10 nM.
